In patent US20250257126A1 (CAMBRIDGE ENTERPRISE, published 2025):
Each block holds one binder with its values, some of them ahead of it.

How the values were obtained:
[1] = biological target: T1, endogenous human LGR5 of cancer cell lines (human, UniProt O75473 22-907); test: cell-based or functional assay
T1 sequence: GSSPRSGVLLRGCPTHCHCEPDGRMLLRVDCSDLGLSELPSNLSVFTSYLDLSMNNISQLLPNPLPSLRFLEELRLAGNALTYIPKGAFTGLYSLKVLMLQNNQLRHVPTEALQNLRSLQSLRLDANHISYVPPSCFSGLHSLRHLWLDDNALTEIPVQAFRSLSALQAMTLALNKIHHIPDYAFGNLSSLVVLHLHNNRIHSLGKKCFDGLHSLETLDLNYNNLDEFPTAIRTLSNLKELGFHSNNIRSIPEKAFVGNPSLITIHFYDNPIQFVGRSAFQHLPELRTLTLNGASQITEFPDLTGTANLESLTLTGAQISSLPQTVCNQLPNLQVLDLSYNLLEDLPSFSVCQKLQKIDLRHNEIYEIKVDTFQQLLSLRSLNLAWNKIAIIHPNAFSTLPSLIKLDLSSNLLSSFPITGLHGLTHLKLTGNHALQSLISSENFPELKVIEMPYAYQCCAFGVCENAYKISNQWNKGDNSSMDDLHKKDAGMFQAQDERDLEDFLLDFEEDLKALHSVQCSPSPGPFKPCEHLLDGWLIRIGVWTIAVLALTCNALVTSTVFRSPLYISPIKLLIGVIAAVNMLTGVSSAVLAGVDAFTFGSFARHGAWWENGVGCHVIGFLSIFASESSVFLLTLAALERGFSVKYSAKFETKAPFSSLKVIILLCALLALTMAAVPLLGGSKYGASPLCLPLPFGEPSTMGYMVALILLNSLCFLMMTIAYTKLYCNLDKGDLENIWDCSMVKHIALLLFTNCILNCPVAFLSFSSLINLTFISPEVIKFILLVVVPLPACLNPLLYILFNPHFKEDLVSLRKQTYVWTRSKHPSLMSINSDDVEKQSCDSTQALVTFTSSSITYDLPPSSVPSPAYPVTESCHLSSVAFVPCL

[2] = biological target: T2, RAD-displayed Fragment 1A of human LGR5 (human); test: bio-layer interferometry (Octet), captured RAD-displayed fragment
T2 construct: also called Frag1A
T2 sequence (O75473 22-37, looked up): GSSPRSGVLLRGCPTH

murine LGR4 transgene = biological target: T3, murine LGR4 transgene (mouse, UniProt A2ARI4 25-951); test: western blot of lysates of HEK293T cells expressing HA-tagged LGR-eGFP transgenes, probed with hybridoma clone 2
T3 construct: whole, on cells; Overexpressed in HEK293T cells with N-terminal HA tag, V2 receptor tail and eGFP; also tested as lysate; also called mLGR4

human LGR6 transgene = biological target: T4, human LGR6 transgene (human, UniProt Q9HBX8 25-967); test: immunofluorescence of HEK293T cells expressing LGR-eGFP transgenes, stained with fluorescent clone 2
T4 construct: whole, on cells; Overexpressed in HEK293T cells with N-terminal HA tag, V2 receptor tail and eGFP; also tested as lysate; also called hLGR6; LGR6-eGFP
T4 sequence (looked up): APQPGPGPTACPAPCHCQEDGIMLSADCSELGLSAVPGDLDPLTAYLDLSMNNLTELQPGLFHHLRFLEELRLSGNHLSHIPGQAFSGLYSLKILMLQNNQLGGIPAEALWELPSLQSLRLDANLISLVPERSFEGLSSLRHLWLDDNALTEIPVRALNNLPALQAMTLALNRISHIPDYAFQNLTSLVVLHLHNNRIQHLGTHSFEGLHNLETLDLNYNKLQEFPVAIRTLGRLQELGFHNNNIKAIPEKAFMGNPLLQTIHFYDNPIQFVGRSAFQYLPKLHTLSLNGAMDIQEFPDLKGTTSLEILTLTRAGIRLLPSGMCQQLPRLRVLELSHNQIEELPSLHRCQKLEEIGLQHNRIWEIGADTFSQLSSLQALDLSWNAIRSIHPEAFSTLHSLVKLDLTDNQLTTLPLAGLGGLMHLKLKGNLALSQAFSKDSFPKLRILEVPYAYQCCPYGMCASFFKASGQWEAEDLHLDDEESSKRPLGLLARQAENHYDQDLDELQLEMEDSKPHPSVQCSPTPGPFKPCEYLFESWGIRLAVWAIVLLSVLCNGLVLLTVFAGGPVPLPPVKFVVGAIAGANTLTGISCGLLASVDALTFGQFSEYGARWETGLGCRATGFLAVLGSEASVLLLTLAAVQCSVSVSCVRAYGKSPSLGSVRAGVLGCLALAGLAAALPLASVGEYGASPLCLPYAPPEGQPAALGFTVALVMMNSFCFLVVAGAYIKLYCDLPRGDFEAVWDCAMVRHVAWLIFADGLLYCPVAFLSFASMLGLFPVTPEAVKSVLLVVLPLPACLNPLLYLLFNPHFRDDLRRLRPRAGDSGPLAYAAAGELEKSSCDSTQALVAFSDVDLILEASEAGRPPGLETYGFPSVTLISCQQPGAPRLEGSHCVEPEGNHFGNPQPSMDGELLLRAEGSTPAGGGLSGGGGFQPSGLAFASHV

human LGR4 transgene = biological target: T5, human LGR4 transgene (human, UniProt Q9BXB1 25-951); test: flow cytometry of live HEK293T cells expressing LGR-eGFP transgenes, Fl-α-LGR5 against eGFP
T5 construct: whole, on cells; Overexpressed in HEK293T cells with N-terminal HA tag, V2 receptor tail and eGFP; also tested as lysate; also called hLGR4; LGR4-eGFP

murine LGR5 transgene = biological target: T6, murine LGR5 transgene (mouse, UniProt Q9Z1P4 22-907); test: as above
T6 construct: whole, on cells; Overexpressed in HEK293T cells with N-terminal HA tag, V2 receptor tail and eGFP; also tested as lysate; also called mLGR5; mLGR5-eGFP
T6 sequence (looked up): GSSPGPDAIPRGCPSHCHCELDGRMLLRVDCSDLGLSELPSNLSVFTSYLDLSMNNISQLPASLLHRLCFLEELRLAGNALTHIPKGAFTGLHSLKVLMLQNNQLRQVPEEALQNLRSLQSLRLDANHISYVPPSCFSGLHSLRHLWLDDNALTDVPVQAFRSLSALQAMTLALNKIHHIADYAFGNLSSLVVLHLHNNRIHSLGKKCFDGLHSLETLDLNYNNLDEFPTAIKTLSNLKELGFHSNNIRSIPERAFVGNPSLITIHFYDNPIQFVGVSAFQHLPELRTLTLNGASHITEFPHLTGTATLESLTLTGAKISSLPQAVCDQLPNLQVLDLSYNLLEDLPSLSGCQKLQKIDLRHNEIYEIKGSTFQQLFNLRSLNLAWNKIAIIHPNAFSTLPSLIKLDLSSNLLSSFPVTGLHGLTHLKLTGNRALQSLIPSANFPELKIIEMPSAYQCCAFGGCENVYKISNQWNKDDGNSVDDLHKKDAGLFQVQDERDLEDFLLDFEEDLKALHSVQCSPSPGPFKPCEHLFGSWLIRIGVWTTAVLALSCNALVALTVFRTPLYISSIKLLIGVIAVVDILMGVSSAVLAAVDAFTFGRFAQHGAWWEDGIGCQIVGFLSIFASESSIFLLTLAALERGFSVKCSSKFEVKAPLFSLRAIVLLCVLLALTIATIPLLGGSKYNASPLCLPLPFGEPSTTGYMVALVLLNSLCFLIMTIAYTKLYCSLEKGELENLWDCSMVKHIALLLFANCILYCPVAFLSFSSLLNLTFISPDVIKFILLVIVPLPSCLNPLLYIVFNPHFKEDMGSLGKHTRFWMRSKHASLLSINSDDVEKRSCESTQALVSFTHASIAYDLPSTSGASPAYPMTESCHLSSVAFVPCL

murine LGR6 transgene = biological target: T7, murine LGR6 transgene (mouse, UniProt Q3UVD5 23-967); test: western blot of lysates of HEK293T cells expressing the LGR transgenes
T7 construct: whole, on cells; also called mLGR6
T7 sequence (looked up): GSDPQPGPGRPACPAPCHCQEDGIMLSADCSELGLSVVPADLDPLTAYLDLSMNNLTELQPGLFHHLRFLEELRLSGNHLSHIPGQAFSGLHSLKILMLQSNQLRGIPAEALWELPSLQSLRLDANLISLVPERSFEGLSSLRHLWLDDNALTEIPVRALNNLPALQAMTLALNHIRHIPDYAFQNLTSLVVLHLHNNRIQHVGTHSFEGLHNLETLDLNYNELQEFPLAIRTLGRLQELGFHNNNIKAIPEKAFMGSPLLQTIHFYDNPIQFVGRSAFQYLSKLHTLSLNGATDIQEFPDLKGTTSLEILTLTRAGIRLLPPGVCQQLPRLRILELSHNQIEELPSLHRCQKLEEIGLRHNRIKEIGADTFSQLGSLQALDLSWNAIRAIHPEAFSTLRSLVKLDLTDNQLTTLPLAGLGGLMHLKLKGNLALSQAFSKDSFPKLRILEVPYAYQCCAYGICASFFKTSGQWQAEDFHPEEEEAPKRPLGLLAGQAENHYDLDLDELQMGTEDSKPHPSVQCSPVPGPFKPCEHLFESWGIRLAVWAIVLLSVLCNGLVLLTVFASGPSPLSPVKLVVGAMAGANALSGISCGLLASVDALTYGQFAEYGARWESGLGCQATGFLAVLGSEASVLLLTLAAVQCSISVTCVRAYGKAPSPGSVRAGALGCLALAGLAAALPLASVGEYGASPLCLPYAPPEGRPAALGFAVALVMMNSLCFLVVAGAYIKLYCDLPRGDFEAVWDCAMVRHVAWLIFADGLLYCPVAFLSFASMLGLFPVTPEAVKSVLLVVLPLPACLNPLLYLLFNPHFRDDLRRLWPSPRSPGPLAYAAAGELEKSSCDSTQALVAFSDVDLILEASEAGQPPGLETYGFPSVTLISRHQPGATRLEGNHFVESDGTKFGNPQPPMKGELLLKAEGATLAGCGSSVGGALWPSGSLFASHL

[3] = biological target: T2, RAD-displayed Fragment 1A of human LGR5; test: bio-layer interferometry (Octet), captured RAD-displayed fragment, 10 µM Fragment 1 peptide included
α-LGR5 epitope peptide = biological target: T8, α-LGR5 epitope peptide (human); test: bio-layer interferometry (Octet), scFv absorbed to Ni-NTA biosensors, epitope peptide SEQ ID NO: 210 added; scFv fragment, not whole IgG
T8 construct: Peptide added to scFv-α-LGR5 absorbed on Ni-NTA biosensors; also called the peptide
T8 peptide: SSPRSGVLLRGCPTHCHC
Protocol: Binding affinities were determined by bio-layer interferometry measurements using the Octet platform.
Binding affinity was determined by biolayer interferometry on the Octet platform.

B1: α-LGR5 clone 2-ADC (antibody, mouse IgG2b, kappa, V domains shown)
VH: QVQLQQPGAELVKPGASVKLSCKASGYTFTNYWMQWVKQRPGQGLEWIGEIDPSDSYTNYNQKFKGKATLTVDTSSSTAYMQLSSLTSEDSAVYYCARSLSGYVDYWGQGTTLTVSS
VL: DIQMTQTTSSLSASLGDRVTISCRASQDISNRLNWYQQKPDGTVKLLISYRSRLHSGVPSRFSGSGSGTDYSLTISNLEQEDIATYFCQQGNSLPPTFGGGTKLEVRR
modifications: MMAE coupled through a divinyl pyrimidine bridging linker inserted within the heavy chain-light chain disulphide linkages, drug-to-antibody ratio of 4
notes: cleavable linker version; also called α-LGR5-ADC
EC50 of cell killing, LoVo cells [1]: 9 nM
EC50 of cell killing, NALM6 cells, single dose, three days [1]: 4 nM
EC50 of cell killing, REH cells [1]: 10 nM
estimated EC50 for organoid cell apoptosis (cleaved caspase 3), CRC organoid line 1 [1]: ~5 nM
estimated EC50 for organoid cell apoptosis (cleaved caspase 3), CRC organoid line 2 [1]: ~100 nM
Kd [2]: 2.7 nM

B3: α-LGR5 clone 2 (antibody, mouse IgG2b, kappa, V domains shown)
VH: B1 VH
VL: B1 VL
notes: Murine monoclonal antibody; In immunofluorescence and flow cytometry it carried a fluorophore (Alexa647 or DyLight 650) and is given as FI-α-LGR5 / FL-α-LGR5; also called a-LGR5; hybridoma clone 2
binding result (murine LGR4 transgene): no binding
binding result (human LGR6 transgene): no binding
binding result (human LGR4 transgene): no binding
binding result (murine LGR5 transgene): no binding
binding result (murine LGR6 transgene): no binding
Kd [3]: 1.1 nM

Other lines, results leading:

Kd [2]: 3.4 nM
B2: α-LGR5 humanized (antibody, V domains shown)
VH: B1 VH
VL: DIQMTQTTSSLSASLGDRVTISCRASQDISNRLNWYQQKPDGTVKLLISYRSRLHSGVPSRFSGSGSGTDYSLTISNLEQEDIATYFCQQGNSLPPTFGGGTKLEVR
notes: Direct transposition of the murine clone 2 variable domains into the human IgG scaffold; also called α-LGR5 humanised

Kd (α-LGR5 epitope peptide): 0.77 nM
B4: scFv-α-LGR5 (scFv)
scFv: EIVMTQSPATLSLSPGERATLSCRASQDISNRLNWYQQKPGQAVRLLISYRSRRHTGIPARFSGSGSGTDYTLTISSLEPEDFAVYYCQQGNSLPPTFGGGTKLEIKGGGGSGGGGSGGGGSGGGGSQVQLVQSGAEVKKPGASVKVSCKASGYTFTNYWMQWVRQAPGQGLEWIGEIDPSDSYTNYNQKFQGRVTLTVDTSTSTAYMELSSLRSEDTAVYYCARSLSGYVDYWGQGTTVTVSS
notes: Made from human variant 4 (clone 2.4), VL-linker-VH; The protein in the Octet assay was 6xHis-tagged; also called scFv fragment; svFv-α-LGR5

Kd [2]: 2 nM
B5: α-LGR5 variant 4-ADC (antibody, human IgG1, kappa, V domains shown)
VH: QVQLVQSGAEVKKPGASVKVSCKASGYTFTNYWMQWVRQAPGQGLEWIGEIDPSDSYTNYNQKFQGRVTLTVDTSTSTAYMELSSLRSEDTAVYYCARSLSGYVDYWGQGTTVTVSS
VL: EIVMTQSPATLSLSPGERATLSCRASQDISNRLNWYQQKPGQAVRLLISYRSRRHTGIPARFSGSGSGTDYTLTISSLEPEDFAVYYCQQGNSLPPTFGGGTKLEIKR
modifications: MMAE coupled through a divinyl pyrimidine bridging linker inserted within the heavy chain-light chain disulphide linkages, drug-to-antibody ratio of 4
notes: ADC version of humanized variant 4 (clone 2.4); also called α-LGR5v4-ADC
